Assay results taken from publication PMC4433220.

Target: Dps (Escherichia coli) (UniProt P0ABT2)
Assay: AFM
Conditions: EMSA: 50 mM Tris-HCl pH 7.5, 0.1 mM EDTA, 50 mM NaCl, 37°C 30 min, footprinting: 50 mM Tris-HCl pH 8.0, 0.1 mM EDTA, 0.1 mM DTT, 10 mM MgCl2, 50 mM NaCl …

pET28b nicked with Nt.BspD6I
binding signal (nm DNA per bound Dps) (nicked at GAGTC sites (9 sites), 4 nt 3' of the site, top strand): 117

pET28b native
binding signal (nm DNA per bound Dps): 135
